Experiment [1] concerns the target Mdb1-pT113 phosphopeptide (fluorescein-labelled) (S. pombe). The experiment can be described thus: fluorescence polarisation. (In general: Polarisation of emitted light reports the rotation of a fluorescent probe.)
Experiment [2] has as its target RHNO1-pT202 phospho-peptide (human). Kind of experiment: fluorescence polarisation.

Consider Rad4-BRCT1,2 K155E (domain or fragment), for which the fold reduction of binding against wild type in experiment [1] was 20 fold.

In experiment [2], “TOPBP1-BRCT0,1,2 segment (wild type, recombinant) (domain or fragment)” yielded a fold tighter binding than RAD9-pS387 of 10 fold.

The values above are taken from publication doi:10.1101/368936.
